Measurements from the supplement of paper PMC12042874.
± gives the uncertainty stated by the source.

Assay: amyloid nucleation score (Sup35N fusion, yeast selection) (log enrichment); library NNK3; higher = more nucleation; inactive = no reads after selection
Procedure, shortened: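 Peptides of 20 random codons fused to Sup35N were expressed in psi-negative yeast, induced 24 hours with 100 μM copper sulfate, then grown 7 days at 30°C on medium lacking adenine and uracil. Input and output plasmid inserts were Illumina-sequenced. Nucleation score is the DiMSum log enrichment of output over input reads, centred on the mode score of non-aggregating sequences, excluding sequences with under 100 input reads. Random libraries had three technical output replicates.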

| Substance | amyloid nucleation score |
| --- | --- |
| WRFRPVVYQRRPY | inactive |
| FRPAN | -0.286 ± 0.78 |
| LSPSVFVNSNRLMTESSRGF | inactive |
| SCARSGTYIAVGIQSCCPRW | 1.5 ± 0.14 |
| NENTALSTWAPGYLINSYRA | inactive |
| VMKPNIEFGN | inactive |
| QLCGLAAWDFFCLVGHILKK | 1.23 ± 0.095 |
| LFGFLYFVV | -0.564 ± 0.82 |
| VDVAVFLEMLYCWCRDGFTR | 1.79 ± 0.1 |
| TWWCLN | inactive |
| VRLFRVLWRIIPDGVSMKSV | inactive |
| VYCHC | inactive |
| VFSVHVWQCSNLFQRMLCNF | 1.06 ± 0.14 |
| RFSTQAENGVSIIFNLVCFN | 2.8 ± 0.082 |
| SLSILT | inactive |
| YNFTSFLLIAGNAGSSSSRK | 2.04 ± 0.073 |
| HFHFLGCDSLGIVVGEWSDH | 0.94 ± 0.18 |
| MCYLSSSDAGDVIPAWC | inactive |
| VGSITVRLWYILECGEEVDC | inactive |
| TLILTDRTWLNDLSSLLIQL | inactive |
| NYLGWPDIKCHGYVDSFLFV | inactive |
| FFEWRTGLFVLWLSEVTSLM | inactive |
| RIWPSGSC | inactive |
| SVYVNAYEHNKGGFTRNIHI | inactive |
| IIPYHEFIVGALVSHRWCQD | inactive |
| MFMRIRSLIE | inactive |
| VVMTDHINIKGIVEPTVTTF | inactive |

| Substance | amyloid nucleation score |
| --- | --- |
| ISVIYLS | inactive |
| LFLRTEKIRFRSTRLVTLSC | inactive |
| GSWDVKLSF | inactive |
| TKRWHR | inactive |
| FHQLGICKFKA | -0.387 ± 0.88 |
| TNESIMCGLAT | inactive |
| FFALPDLALYNFFFCNPHYL | 2.27 ± 0.064 |
| HQISVVCGTNMRNGCFRSLC | inactive |
| VLPNYPSFNSSYICWYFWYL | inactive |
| SDISRQYICVMYVSRLRG | inactive |
| SKLKATRTRL | inactive |
| KCDDIGCLGQAT | inactive |
| CYDDRHENHHYGE | inactive |
| KMSNGDTNDANVFIVRDSWL | inactive |
| KYHLGECVLSPLAPKIHWEI | inactive |
| DCCKFFLKDSRSRSFSWSIY | 1.66 ± 0.08 |
| LFLDVSIYVCPEGILRKS | 2.65 ± 0.084 |
| ACGGCHYKRAYMQLGLMRLK | inactive |
| SFKFMYNSFRSNGDIFSFNR | 2.35 ± 0.073 |
| KARWYFIVLNVVTHSWDSKV | inactive |
| YCVSMANKLTCLCKGNSYPN | 2.4 ± 0.061 |
| RDFITRSSECSESD | inactive |
| DRRYEGGRKVQSYTVARPWS | inactive |
| YRAKNSDRCPGDAYTYFVLR | inactive |
| AEYLMEQAGTMC | inactive |
| SGPRDSRLCRDSSVSGVYLS | inactive |
| IRSPWTSRAVCGGADV | inactive |

| Substance | amyloid nucleation score |
| --- | --- |
| LKRYFI | inactive |
| VFVNSYS | inactive |
| IDWLKRVVEVTSVEGAYCWW | inactive |
| QKMGRGARKCMQLYVMGKDL | inactive |
| GYMWGLEDNFALWTGRNNYV | inactive |
| FIYNVDVHCASSVNIGWGQK | 2.83 ± 0.08 |
| LTNLCES | inactive |
| AHGNINFSLCDWHHIIQFSM | inactive |
| FFERSR | inactive |
| YEFATNAQESS | inactive |
| QSGSTLTMLQWVIPSDSKLM | inactive |
| TPSRLPQAACWQ | inactive |
| MSIVAGENLIGKV | inactive |
| QGAMVD | inactive |
| GVRLNVDRAVKVARELFH | inactive |
| WEYNASLLVLTHLGWAFHLC | inactive |
| MSNGIVYNELFSVVRWS | 1.67 ± 0.071 |
| ISRSGNLLGYKDLLVATKSG | inactive |
| TEGRVQMWRINALRECTGSS | inactive |
| SYLYVTKYVLFDR | inactive |
| VIRPGQYVIWFSRVILSFLF | inactive |
| ASATARHTPNIY | inactive |
| IVGIKVDIYNTSGCS | 1.7 ± 0.12 |
| HGNRVFYFELHSYPVLDSAM | 0.984 ± 0.17 |
| THNVRDMLPATETFASKSGG | 1.1 ± 0.17 |
| IRCNRYVSL | inactive |
